PMC10938568

Target: GST-PreScission-p62 FIR 4P (human) (UniProt Q13501)
Assay: SPR

For “His8-TEV-LC3B (1 to 125) (from UniProt Q9GZQ8 1-120) (natural protein)”, which Kd estimated from the kinetics is on record?
Its Kd estimated from the kinetics is 80 nM.

What about the half-life of the same substance?
The half-life was 20 min.
